Reference: PMC12092789

Biological target: RAD51 (UniProt Q06609)
Assay: co-immunoprecipitation, Western blot
Conditions: reference: wild-type NPM1, cisplatin; sites S260

- binding against the reference: stronger
Substance: nucleophosmin 1 (NPM1) (from UniProt P06748) NPM1 S260A, cisplatin
